By EC50 is commonly meant the concentration that produces a half-maximal response. Higher therefore signals a need for much substance.

Data on five molecules can be found in patent CN113061185A (EXCYTE BEIJING PHARMACEUTICAL TECH DEVELOPMENT CO LTD, dated 2021).

Assay [1] has as its target T1, BCMA-Fc fusion protein (Acrobiosystems, catalogue no. BC7-H5254) (human, UniProt Q02223 1-54).
T1 construct: Bought fusion protein; Used as coated antigen in ELISA; also called BCMA抗原; BCMA-Fc抗原; not shown: human Fc
T1 sequence (looked up): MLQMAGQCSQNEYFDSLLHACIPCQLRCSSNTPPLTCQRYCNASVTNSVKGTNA
The assay can be described thus: ELISA, intrinsic affinity. (ELISA stands for enzyme-linked immunosorbent assay.)

The target in assay [2] is T2, BCMA on the surface of BCMA-positive cell lines H929 (NCI-H929) and RPMI8226 (human, UniProt Q02223 1-184).
T2 construct: whole, on cells; Endogenous BCMA of the cell lines; also called 细胞膜表面的BCMA抗原
T2 sequence (looked up): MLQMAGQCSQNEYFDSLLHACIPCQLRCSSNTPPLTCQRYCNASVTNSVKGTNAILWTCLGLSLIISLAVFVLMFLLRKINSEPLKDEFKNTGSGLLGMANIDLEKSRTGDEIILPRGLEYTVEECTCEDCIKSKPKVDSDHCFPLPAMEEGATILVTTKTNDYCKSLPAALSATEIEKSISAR
The experiment in a line: flow cytometry on RPMI8226 cells. In general terms: In flow cytometry, cells or beads pass a laser one at a time.

Assay [3] concerns the target T2, BCMA on the surface of BCMA-positive …. The assay can be described thus: flow cytometry, antibody titration on RPMI8226 cells.
Assay [4] has the same target. The assay can be described thus: flow cytometry (FACS), apparent affinity on BCMA-bearing cells.
The target is the same in assay [5]. The experiment in a line: flow cytometry on RPMI8226 cells; EC50 relative to J6.
Assay [6] shares this target. The assay is described as above. This is another data set of the same source.
Assay [7] has the same target. The assay can be described thus: flow cytometry on H929 cells.
Assay [8] concerns the target T1, BCMA-Fc fusion protein (Acrobiosystems, …). The assay can be described thus: ELISA on BCMA; EC50 relative to J6.
Assay [9] shares this target. The experiment in a line: ELISA; affinity estimated from the EC50 ratio to J6 (J6 taken as 0.2 nM).

B1: B10 parental antibody as expressed and purified in Example 3 (antibody, V domains shown)
VH: QVQLQQSGAEVKKPGSSVKVSCKASGGTFSSYAISWVRQAPGQGLEWMGGIIPIFGTANYAQKFQGRVTITADESTSTAYMELSSLRSEDTAVYYCARGWYFDLWGRGTLVTVSS
VL: LPVLTQPPSASGTPGQRVTISCSGSSSNIGGYSVNWYQQFPGTAPKLLIYRNNQRPSGVPDRFSGSKSGASASLAISGLQSEDEADYYCAAWDDSLIGYVFGTGTQLTVL
notes: also called 亲本B10; B10亲本抗体
Turning to B1, the Kd was about 10000 pM in assay [1] and 300 pM in [4]. The figures for the “细胞结合百分率 (percent of cells bound)” value in assay [2] and in [7] were 5.54% and 75.3%, respectively. This molecule also yielded an EC50 in assay [3] of 1.57 µg/mL. In addition, in assay [5], the “相对于J6提高倍数 (fold improvement of EC50 over J6)” value is 1.74 fold. Moreover, the “fold improvement of EC50 over J6” value in [6] is about 1.5 fold.

B2: B10.3 (affinity-matured mutant of B10) (scFv)
scFv: QVQLQQSGAEVKKPGSSVKVSCKASGGTFSKSAIQWVRQAPGQGLEWMGGVIPIFGTANYAQKFQGRVTITADESTSTAYMELSSLRSEDTAVYYCARGWYLDLWGRGTLVTVSSGGSSRSSSSGGGGSGGGGLPVLTQPPSASGTPGQRVTISCSGSSNNIGGYSVNWYQQFPGTAPKLLIYRNNQRPSGVPDRFSGSKSGASASLAISGLQSEDEADYYCAAWDDSVIGWLFGTGTQLTVL
notes: also called 突变体B10.3
B2: the “Fold of J6 (EC50 ratio)” value in assay [8] stood at 1.29 fold. Moreover, the “细胞结合百分率 (percent of cells bound)” value in [2] turned out to be 54.9%; in [7], 98%. This molecule registered an EC50 in [3] of 0.0282 µg/mL. The “相对于J6提高倍数 (fold improvement of EC50 over J6)” value in assay [5] is 97.1 fold. Also, the Kd in [9] was 260 pM.

B3: B10.9 (affinity-matured mutant of B10) (scFv)
scFv: QVQLQQSGAEVKKPGSSVKVSCKASGGTFSKSAIQWVRQAPGQGLEWMGGVIPIFGTANYAQKFQGRVTITADESTSTAYMELSSLRSEDTAVYYCARGWYLDLWGRGTLVTVSSGGSSRSSSSGGGGSGGGGLPVLTQPPSASGTPGQRVTISCSGSSNNIGGYSVNWYQQFPGTAPKLLIYRNNQRPSGVPDRFSGSKSGASASLAISGLQSEDEADYYCAAWDDSEIGWLFGTGTQLTVL
notes: also called 突变体B10.9
B3: the “Fold of J6 (EC50 ratio)” value in assay [8] stood at 1.43 fold. Also, the “细胞结合百分率 (percent of cells bound)” value in assay [2] came out at 42.9%; in assay [7], 91.6%. Besides, the midpoint of the response in assay [3], the EC50, lay at 0.0451 µg/mL. Also, the “相对于J6提高倍数 (fold improvement of EC50 over J6)” value in [5] came to 60.7 fold. In addition, the Kd in assay [9] was 290 pM.

B4: B10.4 (affinity-matured mutant of B10) (scFv)
scFv: QVQLQQSGAEVKKPGSSVKVSCKASGGTFSKSAIMWVRQAPGQGLEWMGGVIPIFGTANYAQKFQGRVTITADESTSTAYMELSSLRSEDTAVYYCARGWYLDLWGRGTLVTVSSGGSSRSSSSGGGGSGGGGLPVLTQPPSASGTPGQRVTISCSGSSNNIGGYSVNWYQQFPGTAPKLLIYRNNQRPSGVPDRFSGSKSGASASLAISGLQSEDEADYYCAAWDDSVIGWLFGTGTQLTVL
notes: also called 突变体B10.4
Take B4: the “Fold of J6 (EC50 ratio)” value in assay [8] stood at 1.55 fold. Further, the “细胞结合百分率 (percent of cells bound)” value in [2] stood at 57.5%; in assay [7] it was 97.9%. The same molecule registered an EC50 in assay [3] of 0.0343 µg/mL. In addition, the “相对于J6提高倍数 (fold improvement of EC50 over J6)” value in [5] amounted to 79.9 fold. Moreover, the Kd in [9] is 310 pM.

B5: B10.5 (affinity-matured mutant of B10) (scFv)
scFv: QVQLQQSGAEVKKPGSSVKVSCKASGGTFSKSAIHWVRQAPGQGLEWMGGVIPIFGTANYAQKFQGRVTITADESTSTAYMELSSLRSEDTAVYYCARGWYLDLWGRGTLVTVSSGGSSRSSSSGGGGSGGGGLPVLTQPPSASGTPGQRVTISCSGSSSNIGGYSVNWYQQFPGTAPKLLIYRNNQRPSGVPDRFSGSKSGASASLAISGLQSEDVADYYCAAWDDSLIGYVFGTGTQLTVL
notes: also called 突变体B10.5
With B5, the “Fold of J6 (EC50 ratio)” value in [8] was 1.35 fold. The “细胞结合百分率 (percent of cells bound)” value is 58.2% in assay [2] and 97.2% in assay [7]. For the same molecule, the EC50 in [3] amounted to 0.0406 µg/mL. The “相对于J6提高倍数 (fold improvement of EC50 over J6)” value in [5] is 67.5 fold. The Kd in [9] was 270 pM.
